Patent publication US20070053894

Legend:
plasminogen, P00747 = molecular target: T1, plasminogen, P00747
T1 chain: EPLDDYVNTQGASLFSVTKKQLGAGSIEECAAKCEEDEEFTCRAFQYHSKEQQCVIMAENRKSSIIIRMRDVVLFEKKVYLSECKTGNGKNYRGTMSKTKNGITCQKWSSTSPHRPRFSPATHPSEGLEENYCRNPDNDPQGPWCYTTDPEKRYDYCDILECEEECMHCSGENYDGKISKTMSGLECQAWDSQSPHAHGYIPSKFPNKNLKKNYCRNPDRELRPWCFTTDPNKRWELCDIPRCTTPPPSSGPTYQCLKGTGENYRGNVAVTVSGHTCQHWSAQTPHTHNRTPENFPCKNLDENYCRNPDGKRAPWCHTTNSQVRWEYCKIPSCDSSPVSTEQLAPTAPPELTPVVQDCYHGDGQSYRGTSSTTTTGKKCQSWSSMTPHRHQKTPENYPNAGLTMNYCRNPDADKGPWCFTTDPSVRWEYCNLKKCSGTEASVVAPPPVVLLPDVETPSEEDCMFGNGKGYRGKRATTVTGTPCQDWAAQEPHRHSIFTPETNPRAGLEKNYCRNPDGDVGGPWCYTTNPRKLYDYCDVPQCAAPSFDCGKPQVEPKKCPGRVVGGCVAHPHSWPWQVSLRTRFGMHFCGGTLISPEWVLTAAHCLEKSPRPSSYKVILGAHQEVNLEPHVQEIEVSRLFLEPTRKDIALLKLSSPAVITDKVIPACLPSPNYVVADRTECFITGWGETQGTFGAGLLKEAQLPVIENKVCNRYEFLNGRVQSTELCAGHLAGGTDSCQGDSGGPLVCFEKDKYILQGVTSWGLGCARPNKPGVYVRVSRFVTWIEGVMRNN

[1] = molecular target: T2, Soluble human recombinant p97 (melanotransferrin)
T2 chain: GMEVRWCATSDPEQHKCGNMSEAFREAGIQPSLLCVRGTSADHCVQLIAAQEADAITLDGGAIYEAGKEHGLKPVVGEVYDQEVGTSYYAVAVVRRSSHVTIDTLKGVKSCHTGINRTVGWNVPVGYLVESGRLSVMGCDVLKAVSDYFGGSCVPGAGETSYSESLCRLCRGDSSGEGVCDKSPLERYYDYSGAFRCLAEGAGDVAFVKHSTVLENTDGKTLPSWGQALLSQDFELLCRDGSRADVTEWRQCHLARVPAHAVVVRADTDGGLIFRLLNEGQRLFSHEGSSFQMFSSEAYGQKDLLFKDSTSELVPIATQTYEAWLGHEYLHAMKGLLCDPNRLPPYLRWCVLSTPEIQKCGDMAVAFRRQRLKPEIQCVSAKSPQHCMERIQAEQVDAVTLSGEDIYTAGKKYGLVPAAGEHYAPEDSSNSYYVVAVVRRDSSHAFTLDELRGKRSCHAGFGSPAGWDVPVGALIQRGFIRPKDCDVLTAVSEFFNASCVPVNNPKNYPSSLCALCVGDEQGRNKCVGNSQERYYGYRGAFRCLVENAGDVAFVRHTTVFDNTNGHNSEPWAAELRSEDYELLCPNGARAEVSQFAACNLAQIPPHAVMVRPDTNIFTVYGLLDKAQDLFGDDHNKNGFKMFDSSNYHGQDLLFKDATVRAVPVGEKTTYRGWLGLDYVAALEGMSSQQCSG

B1: tissue plasminogen activator (tPA) (protein)
chain: SYQVICRDEKTQMIYQQHQSWLRPVLRSNRVEYCWCNSGRAQCHSVPVKSCSEPRCFNGGTCQQALYFSDFVCQCPEGFAGKCCEIDTRATCYEDQGISYRGTWSTAESGAECTNWNSSALAQKPYSGRRPDAIRLGLGNHNYCRNPDRDSKPWCYVFKAGKYSSEFCSTPACSEGNSDCYFGNGSAYRGTHSLTESGASCLPWNSMILIGKVYTAQNPSAQALGLGKHNYCRNPDGDAKPWCHVLKNRRLTWEYCDVPSCSTCGLRQYSQPQFRIKGGLFADIASHPWQAAIFAKHRRSPGERFLCGGILISSCWILSAAHCFQERFPPHHLTVILGRTYRVVPGEEEQKFEVEKYIVHKEFDDDTYDNDIALLQLKSDSSRCAQESSVVRTVCLPPADLQLPDWTECELSGYGKHEALSPFYSERLKEAHVRLYPSSRCTSQHLLNRTVTDNMLCAGDTRSGGPQANLHDACQGDSGGPLVCLNDGRMTLVGIISWGLGCGQKDVPGVYTKVTNYLDWIRDNMRP
- apparent Km of tPA for plasminogen, with 50 nM p97 (plasminogen, P00747): decreases the apparent Km of tPA for plasminogen by 5-fold from 280 to 52 nM
- apparent Km of tPA for plasminogen, without p97 (plasminogen, P00747): decreases the apparent Km of tPA for plasminogen by 5-fold from 280 to 52 nM
- VLK-pNA hydrolysis by 75 nM tPA with 70 nM p97, without plasminogen [1]: Addition of p97 to tPA elicits no observable effect
